Measured values as given in patent publication US20110059888A1.
*1 amine or outer side, *2 acyl side, *3 side chain or, on linkers, in order; H or OH if unused. [ ]: non-standard residue; d: D form. Ser(Me) = O-methylserine, COC[C@H](N[*:1])C(=O)[*:2]; Arg(Me) = CNC(=N)NCCC[C@H](N)C(=O)O; Ala(cPr) = N[C@@H](CC1CC1)C(=O)O; Hyp = O=C(O)[C@@H]1C[C@@H](O)CN1; 2Pal = N[C@@H](Cc1ccccn1)C(=O)O; 3Pal = N[C@@H](Cc1cccnc1)C(=O)O; 4Pal = N[C@@H](Cc1ccncc1)C(=O)O; Cha = N[C@@H](CC1CCCCC1)C(=O)O

B1: des(1)-Ac-[D-Tyr2,Hyp3,Thr5,Gly7Ψ(CH2NH)Leu8,Arg(Me)9,Trp10]MS10 (peptide)
peptide: Ac-[dY][Hyp]NTFGL[Arg(Me)]W-NH2
modifications: also: Gly6-Leu7 amide replaced by CH2NH
B2: des(1)-Ac-[D-Tyr2,Hyp3,Thr5,Phe6Ψ((S)CHOH-CH2)Gly7,Arg(Me)9,Trp10]MS10 (peptide)
peptide: Ac-[dY][Hyp]NTFGL[Arg(Me)]W-NH2
modifications: also: Phe5-Gly6 amide replaced by (S)CHOH-CH2
B3: des(1)-Ac-[D-Tyr2,Hyp3,Thr5,Pya(2)6,Arg(Me)9,Trp10]MS10 (peptide)
peptide: Ac-[dY][Hyp]NT[2Pal]GL[Arg(Me)]W-NH2
SMILES: CNC(=N)NCCC[C@H](NC(=O)[C@H](CC(C)C)NC(=O)CNC(=O)[C@H](Cc1ccccn1)NC(=O)[C@@H](NC(=O)[C@H](CC(N)=O)NC(=O)[C@@H]1C[C@@H](O)CN1C(=O)[C@@H](Cc1ccc(O)cc1)NC(C)=O)[C@@H](C)O)C(=O)N[C@@H](Cc1c[nH]c2ccccc12)C(N)=O
B4: des(1)-Ac-[D-Tyr2,Hyp3,Thr5,Pya(4)6,Arg(Me)9,Trp10]MS10 (peptide)
peptide: Ac-[dY][Hyp]NT[4Pal]GL[Arg(Me)]W-NH2
SMILES: CNC(=N)NCCC[C@H](NC(=O)[C@H](CC(C)C)NC(=O)CNC(=O)[C@H](Cc1ccncc1)NC(=O)[C@@H](NC(=O)[C@H](CC(N)=O)NC(=O)[C@@H]1C[C@@H](O)CN1C(=O)[C@@H](Cc1ccc(O)cc1)NC(C)=O)[C@@H](C)O)C(=O)N[C@@H](Cc1c[nH]c2ccccc12)C(N)=O
B5: des(1)-Ac-[D-Tyr2,Hyp3,Thr5,Arg(Me)9,Trp10]MS10 (peptide)
peptide: Ac-[dY][Hyp]NTFGL[Arg(Me)]W-NH2
B6: des(1)-Ac-[D-Tyr2,Glu3,Thr5,Arg(Me)9,Trp10]MS10 (peptide)
peptide: Ac-[dY]ENTFGL[Arg(Me)]W-NH2
SMILES: CNC(=N)NCCC[C@H](NC(=O)[C@H](CC(C)C)NC(=O)CNC(=O)[C@H](Cc1ccccc1)NC(=O)[C@@H](NC(=O)[C@H](CC(N)=O)NC(=O)[C@H](CCC(=O)O)NC(=O)[C@@H](Cc1ccc(O)cc1)NC(C)=O)[C@@H](C)O)C(=O)N[C@@H](Cc1c[nH]c2ccccc12)C(N)=O
B7: des(1)-Ac-[D-Tyr2,Hyp3,Thr5,Phe6Ψ(COCH2)Gly7,Arg(Me)9,Trp10]MS10 (peptide)
peptide: Ac-[dY][Hyp]NTFGL[Arg(Me)]W-NH2
modifications: also: Phe5-Gly6 amide bond replaced by COCH2
B8: des(1)-Ac-[D-Tyr2,Hyp3,Thr5,Phe6Ψ((R)CHOH-(E)CH=)Gly7,Arg(Me)9,Trp10]MS10 (peptide)
peptide: Ac-[dY][Hyp]NTFGL[Arg(Me)]W-NH2
modifications: also: Phe5-Gly6 amide replaced by (R)CHOH-(E)CH=
B9: des(1)-Ac-[D-Tyr2,Hyp3,Thr5,Phe6Ψ((E)CH═CH)Gly7,Arg(Me)9,Trp10]MS10 (peptide)
peptide: Ac-[dY][Hyp]NTFGL[Arg(Me)]W-NH2
modifications: also: Phe5-Gly6 amide replaced by (E)CH=CH
B10: des(1)-Ac-[D-Tyr2,Hyp3,Thr5,Ala(cPr)6,Arg(Me)9,Trp10]MS10 (peptide)
peptide: Ac-[dY][Hyp]NT[Ala(cPr)]GL[Arg(Me)]W-NH2
B11: des(1)-Ac-[D-Tyr2,Hyp3,Thr5,Phe6Ψ((S)CHOH-(E)CH=)Gly7,Arg(Me)9,Trp10]MS10 (peptide)
peptide: Ac-[dY][Hyp]NTFGL[Arg(Me)]W-NH2
modifications: also: Phe5-Gly6 amide replaced by (S)CHOH-(E)CH=
B12: des(1)-Ac-[D-Tyr2,Hyp3,Thr5,Phe6Ψ(CH2CH2)Gly7,Arg(Me)9,Trp10]MS10 (peptide)
peptide: Ac-[dY][Hyp]NTFGL[Arg(Me)]W-NH2
modifications: also: Phe5-Gly6 amide replaced by CH2CH2
B13: des(1)-Ac-[D-Tyr2,Glu3,Thr5,Cha6,Arg(Me)9,Trp10]MS10 (peptide)
peptide: Ac-[dY]ENT[Cha]GL[Arg(Me)]W-NH2
SMILES: CNC(=N)NCCC[C@H](NC(=O)[C@H](CC(C)C)NC(=O)CNC(=O)[C@H](CC1CCCCC1)NC(=O)[C@@H](NC(=O)[C@H](CC(N)=O)NC(=O)[C@H](CCC(=O)O)NC(=O)[C@@H](Cc1ccc(O)cc1)NC(C)=O)[C@@H](C)O)C(=O)N[C@@H](Cc1c[nH]c2ccccc12)C(N)=O
B14: des(1)-Ac-[D-Tyr2,Hyp3,Thr5,Phe6Ψ(CH2O)Gly7,Arg(Me)9,Trp10]MS10 (peptide)
peptide: Ac-[dY][Hyp]NTFGL[Arg(Me)]W-NH2
modifications: also: Phe5-Gly6 amide bond replaced by CH2O
B15: des(1)-Ac-[D-Tyr2,Hyp3,Thr5,Pya(3)6,Arg(Me)9,Trp10]MS10 (peptide)
peptide: Ac-[dY][Hyp]NT[3Pal]GL[Arg(Me)]W-NH2
SMILES: CNC(=N)NCCC[C@H](NC(=O)[C@H](CC(C)C)NC(=O)CNC(=O)[C@H](Cc1cccnc1)NC(=O)[C@@H](NC(=O)[C@H](CC(N)=O)NC(=O)[C@@H]1C[C@@H](O)CN1C(=O)[C@@H](Cc1ccc(O)cc1)NC(C)=O)[C@@H](C)O)C(=O)N[C@@H](Cc1c[nH]c2ccccc12)C(N)=O
B16: des(1)-Ac-[D-Tyr2,Hyp3,Thr5,Ser(Me)7,Arg(Me)9,Trp10]MS10 (peptide)
peptide: Ac-[dY][Hyp]NTF[Ser(Me)]L[Arg(Me)]W-NH2
SMILES: CNC(=N)NCCC[C@H](NC(=O)[C@H](CC(C)C)NC(=O)[C@H](COC)NC(=O)[C@H](Cc1ccccc1)NC(=O)[C@@H](NC(=O)[C@H](CC(N)=O)NC(=O)[C@@H]1C[C@@H](O)CN1C(=O)[C@@H](Cc1ccc(O)cc1)NC(C)=O)[C@@H](C)O)C(=O)N[C@@H](Cc1c[nH]c2ccccc12)C(N)=O
B17: des(1)-Ac-[D-Tyr2,Hyp3,Thr5,Val7,Arg(Me)9,Trp10]MS10 (peptide)
peptide: Ac-[dY][Hyp]NTFVL[Arg(Me)]W-NH2
SMILES: CNC(=N)NCCC[C@H](NC(=O)[C@H](CC(C)C)NC(=O)[C@@H](NC(=O)[C@H](Cc1ccccc1)NC(=O)[C@@H](NC(=O)[C@H](CC(N)=O)NC(=O)[C@@H]1C[C@@H](O)CN1C(=O)[C@@H](Cc1ccc(O)cc1)NC(C)=O)[C@@H](C)O)C(C)C)C(=O)N[C@@H](Cc1c[nH]c2ccccc12)C(N)=O

Target: human OT7T175 (metastin receptor) (human) (UniProt Q969F8)
Test: cell-based or functional assay

UniProt Q969F8, sequence (Q969F8 whole entry L364H): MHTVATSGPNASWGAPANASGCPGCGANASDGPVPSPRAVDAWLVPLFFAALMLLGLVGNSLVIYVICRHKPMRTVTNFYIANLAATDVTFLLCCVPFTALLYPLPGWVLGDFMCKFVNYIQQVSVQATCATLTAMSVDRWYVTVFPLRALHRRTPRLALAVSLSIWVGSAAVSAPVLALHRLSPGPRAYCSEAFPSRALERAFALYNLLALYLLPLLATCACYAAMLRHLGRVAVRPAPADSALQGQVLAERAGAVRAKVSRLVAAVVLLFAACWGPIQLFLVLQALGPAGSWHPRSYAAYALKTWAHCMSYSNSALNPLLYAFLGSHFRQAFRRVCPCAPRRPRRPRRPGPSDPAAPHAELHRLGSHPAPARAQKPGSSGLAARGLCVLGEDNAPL

| Molecule | Specific Activity (EC50 of test compound based on EC50 of Metastin (45-54); intracellular calcium, FLIPR) (ratio to EC50 of Metastin (45-54)) |
| --- | --- |
| des(1)-Ac-[D-Tyr2,Hyp3,Thr5,Gly7Ψ(CH2S)Leu8,Arg(Me)9,Trp10]MS10 (peptide) | 1.2 |
| B1 | 2.9 |
| B2 | 1.2 |
| B3 | 1.2 |
| B4 | 0.9 |
| B5 | 1.2 |
| B6 | 0.5 |
| B7 | 1.1 |
| B8 | 1.4 |
| B9 | 0.7 |
| B10 | 1.9 |
| B11 | 1.7 |
| B12 | 1.3 |
| B13 | 0.6 |
| B14 | 0.5 |
| B15 | 0.9 |
| B16 | 1.2 |
| B17 | 1.7 |
